Assay results reported in patent US20260001928A1 (CORTERIA PHARMACEUTICALS, priority 2022, published 2026).
*1 amine or outer side, *2 acyl side, *3 side chain or, on linkers, in order; H or OH if unused. Primed or numbered codes have the meaning given here. Side-chain parts run from the residue outwards. [ ]: non-standard residue; d: D form. The star is where a group is joined. Thp′ = 4-amino-tetrahydro-2H-pyran-4-yl-acetic acid, O=C(CC1(N[*:1])CCOCC1)[*:2]; C18 diacid = O=C(O)CCCCCCCCCCCCCCCCC(=O)*; C16 diacid = O=C(O)CCCCCCCCCCCCCCC(=O)*; γGlu = O=C(O)[C@H](CCC(=O)[*:2])N[*:1]; Isovaleryl = CC(C)CC(=O)*; Api = NC1(C(=O)O)CCNCC1; Pentanoyl = CCCCC(=O)*; AEEA = NCCOCCOCC(=O)O; Aib = CC(C)(N)C(=O)O

What was measured:
CRF1R receptor = target: T1, CRF1R receptor (UniProt P34998 24-415, limits assumed); assay: cell-based or functional assay
T1 sequence (looked up): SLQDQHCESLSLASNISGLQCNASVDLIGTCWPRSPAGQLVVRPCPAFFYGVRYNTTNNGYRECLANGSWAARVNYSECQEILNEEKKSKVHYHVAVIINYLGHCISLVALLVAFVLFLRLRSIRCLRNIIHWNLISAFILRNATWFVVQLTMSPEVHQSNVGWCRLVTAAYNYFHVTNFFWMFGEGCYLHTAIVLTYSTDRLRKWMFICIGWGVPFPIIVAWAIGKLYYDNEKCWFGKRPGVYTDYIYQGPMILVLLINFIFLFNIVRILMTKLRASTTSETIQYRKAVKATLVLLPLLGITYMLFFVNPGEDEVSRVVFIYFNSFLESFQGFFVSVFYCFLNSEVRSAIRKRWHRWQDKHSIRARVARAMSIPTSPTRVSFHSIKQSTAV

[1] = target: human corticotropin-releasing factor 2a (CRF2a receptor) (human), Q13324; assay: cell-based or functional assay
Chain of human corticotropin-releasing factor 2a (CRF2a receptor) (human), Q13324 (Q13324 20-411): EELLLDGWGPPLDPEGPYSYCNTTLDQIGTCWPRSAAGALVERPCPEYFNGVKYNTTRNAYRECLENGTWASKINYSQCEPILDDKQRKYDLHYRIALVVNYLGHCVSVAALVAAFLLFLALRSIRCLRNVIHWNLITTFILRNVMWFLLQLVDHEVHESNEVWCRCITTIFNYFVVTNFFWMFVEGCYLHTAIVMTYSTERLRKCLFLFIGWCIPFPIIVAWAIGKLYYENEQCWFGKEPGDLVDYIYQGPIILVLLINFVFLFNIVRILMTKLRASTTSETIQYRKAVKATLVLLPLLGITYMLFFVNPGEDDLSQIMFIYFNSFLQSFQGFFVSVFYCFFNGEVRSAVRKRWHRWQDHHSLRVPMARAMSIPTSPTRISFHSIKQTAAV

Binder	EC50 (CRF1R receptor) [nM]	Emax (% I) (CRF1R receptor) [%]	EC50 [nM] (cAMP) [1]
Isovaleryl-VLSLD[dV]PIKLK([γGlu-C16 diacid])QILLKQERQKKQREQAEKNKQILEQV-NH2 (SMILES CC[C@H](C)[C@H](NC(=O)[C@H](CCC(N)=O)NC(=O)[C@H](CCCCNC(=O)CC[C@H](NC(=O)CCCCCCCCCCCCCCC(=O)O)C(=O)O)NC(=O)[C@H](CC(C)C)NC(=O)[C@H](CCCCN)NC(=O)[C@@H](NC(=O)[C@@H]1CCCN1C(=O)[C@H](NC(=O)[C@H](CC(=O)O)NC(=O)[C@H](CC(C)C)NC(=O)[C@H](CO)NC(=O)[C@H](CC(C)C)NC(=O)[C@@H](NC(=O)CC(C)C)C(C)C)C(C)C)[C@@H](C)CC)C(=O)N[C@@H](CC(C)C)C(=O)N[C@@H](CC(C)C)C(=O)N[C@@H](CCCCN)C(=O)N[C@@H](CCC(N)=O)C(=O)N[C@@H](CCC(=O)O)C(=O)N[C@@H](CCCNC(=N)N)C(=O)N[C@@H](CCC(N)=O)C(=O)N[C@@H](CCCCN)C(=O)N[C@@H](CCCCN)C(=O)N[C@@H](CCC(N)=O)C(=O)N[C@@H](CCCNC(=N)N)C(=O)N[C@@H](CCC(=O)O)C(=O)N[C@@H](CCC(N)=O)C(=O)N[C@@H](C)C(=O)N[C@@H](CCC(=O)O)C(=O)N[C@@H](CCCCN)C(=O)N[C@@H](CC(N)=O)C(=O)N[C@@H](CCCCN)C(=O)N[C@@H](CCC(N)=O)C(=O)N[C@H](C(=O)N[C@@H](CC(C)C)C(=O)N[C@@H](CCC(=O)O)C(=O)N[C@@H](CCC(N)=O)C(=O)N[C@H](C(N)=O)C(C)C)[C@@H](C)CC) [SEQ ID NO 9]	28.2	77	0.16
Ac-IVLSLD[dV]PIKLK([AEEA-AEEA-γGlu-C18 diacid])KILLEQEKQKKQREQAETN[Thp′]QILAQV-NH2 [SEQ ID NO 198]	> 250	8	1.7
Ac-IVLSLD[dV]PIKLK([AEEA-AEEA-γGlu-C18 diacid])KILLEQEKQK[Aib]QREQAETN[Aib]QILAQV-NH2 (SMILES CC[C@H](C)[C@H](NC(C)=O)C(=O)N[C@H](C(=O)N[C@@H](CC(C)C)C(=O)N[C@@H](CO)C(=O)N[C@@H](CC(C)C)C(=O)N[C@@H](CC(=O)O)C(=O)N[C@@H](C(=O)N1CCC[C@H]1C(=O)N[C@H](C(=O)N[C@@H](CCCCN)C(=O)N[C@@H](CC(C)C)C(=O)N[C@@H](CCCCNC(=O)COCCOCCNC(=O)COCCOCCNC(=O)CC[C@H](NC(=O)CCCCCCCCCCCCCCCCC(=O)O)C(=O)O)C(=O)N[C@@H](CCCCN)C(=O)N[C@H](C(=O)N[C@@H](CC(C)C)C(=O)N[C@@H](CC(C)C)C(=O)N[C@@H](CCC(=O)O)C(=O)N[C@@H](CCC(N)=O)C(=O)N[C@@H](CCC(=O)O)C(=O)N[C@@H](CCCCN)C(=O)N[C@@H](CCC(N)=O)C(=O)N[C@@H](CCCCN)C(=O)NC(C)(C)C(=O)N[C@@H](CCC(N)=O)C(=O)N[C@@H](CCCNC(=N)N)C(=O)N[C@@H](CCC(=O)O)C(=O)N[C@@H](CCC(N)=O)C(=O)N[C@@H](C)C(=O)N[C@@H](CCC(=O)O)C(=O)N[C@H](C(=O)N[C@@H](CC(N)=O)C(=O)NC(C)(C)C(=O)N[C@@H](CCC(N)=O)C(=O)N[C@H](C(=O)N[C@@H](CC(C)C)C(=O)N[C@@H](C)C(=O)N[C@@H](CCC(N)=O)C(=O)N[C@H](C(N)=O)C(C)C)[C@@H](C)CC)[C@@H](C)O)[C@@H](C)CC)[C@@H](C)CC)C(C)C)C(C)C) [SEQ ID NO 197]	–	5	1.28
Ac-IVLSLD[dV]PIKLK([AEEA-AEEA-γGlu-C18 diacid])KILLEQEKQK[Aib]QREQAETN[Api]QILAQV-NH2 (SMILES CC[C@H](C)[C@H](NC(C)=O)C(=O)N[C@H](C(=O)N[C@@H](CC(C)C)C(=O)N[C@@H](CO)C(=O)N[C@@H](CC(C)C)C(=O)N[C@@H](CC(=O)O)C(=O)N[C@@H](C(=O)N1CCC[C@H]1C(=O)N[C@H](C(=O)N[C@@H](CCCCN)C(=O)N[C@@H](CC(C)C)C(=O)N[C@@H](CCCCNC(=O)COCCOCCNC(=O)COCCOCCNC(=O)CC[C@H](NC(=O)CCCCCCCCCCCCCCCCC(=O)O)C(=O)O)C(=O)N[C@@H](CCCCN)C(=O)N[C@H](C(=O)N[C@@H](CC(C)C)C(=O)N[C@@H](CC(C)C)C(=O)N[C@@H](CCC(=O)O)C(=O)N[C@@H](CCC(N)=O)C(=O)N[C@@H](CCC(=O)O)C(=O)N[C@@H](CCCCN)C(=O)N[C@@H](CCC(N)=O)C(=O)N[C@@H](CCCCN)C(=O)NC(C)(C)C(=O)N[C@@H](CCC(N)=O)C(=O)N[C@@H](CCCNC(=N)N)C(=O)N[C@@H](CCC(=O)O)C(=O)N[C@@H](CCC(N)=O)C(=O)N[C@@H](C)C(=O)N[C@@H](CCC(=O)O)C(=O)N[C@H](C(=O)N[C@@H](CC(N)=O)C(=O)NC1(C(=O)N[C@@H](CCC(N)=O)C(=O)N[C@H](C(=O)N[C@@H](CC(C)C)C(=O)N[C@@H](C)C(=O)N[C@@H](CCC(N)=O)C(=O)N[C@H](C(N)=O)C(C)C)[C@@H](C)CC)CCNCC1)[C@@H](C)O)[C@@H](C)CC)[C@@H](C)CC)C(C)C)C(C)C) [SEQ ID NO 196]	–	9	2.2
Pentanoyl-VLSLD[dV]PIKLK([γGlu-C18 diacid])KILLEQEKQK[Aib]QREQAETN[Aib]QILAQV-NH2 (SMILES CCCCC(=O)N[C@H](C(=O)N[C@@H](CC(C)C)C(=O)N[C@@H](CO)C(=O)N[C@@H](CC(C)C)C(=O)N[C@@H](CC(=O)O)C(=O)N[C@@H](C(=O)N1CCC[C@H]1C(=O)N[C@H](C(=O)N[C@@H](CCCCN)C(=O)N[C@@H](CC(C)C)C(=O)N[C@@H](CCCCNC(=O)CC[C@H](NC(=O)CCCCCCCCCCCCCCCCC(=O)O)C(=O)O)C(=O)N[C@@H](CCCCN)C(=O)N[C@H](C(=O)N[C@@H](CC(C)C)C(=O)N[C@@H](CC(C)C)C(=O)N[C@@H](CCC(=O)O)C(=O)N[C@@H](CCC(N)=O)C(=O)N[C@@H](CCC(=O)O)C(=O)N[C@@H](CCCCN)C(=O)N[C@@H](CCC(N)=O)C(=O)N[C@@H](CCCCN)C(=O)NC(C)(C)C(=O)N[C@@H](CCC(N)=O)C(=O)N[C@@H](CCCNC(=N)N)C(=O)N[C@@H](CCC(=O)O)C(=O)N[C@@H](CCC(N)=O)C(=O)N[C@@H](C)C(=O)N[C@@H](CCC(=O)O)C(=O)N[C@H](C(=O)N[C@@H](CC(N)=O)C(=O)NC(C)(C)C(=O)N[C@@H](CCC(N)=O)C(=O)N[C@H](C(=O)N[C@@H](CC(C)C)C(=O)N[C@@H](C)C(=O)N[C@@H](CCC(N)=O)C(=O)N[C@H](C(N)=O)C(C)C)[C@@H](C)CC)[C@@H](C)O)[C@@H](C)CC)[C@@H](C)CC)C(C)C)C(C)C) [SEQ ID NO 194]	–	10	0.44
Pentanoyl-VLSLD[dV]PIGLK([γGlu-C18 diacid])KILLEQEKQKKQREQAETN[Aib]QILAQV-NH2 (SMILES CCCCC(=O)N[C@H](C(=O)N[C@@H](CC(C)C)C(=O)N[C@@H](CO)C(=O)N[C@@H](CC(C)C)C(=O)N[C@@H](CC(=O)O)C(=O)N[C@@H](C(=O)N1CCC[C@H]1C(=O)N[C@H](C(=O)NCC(=O)N[C@@H](CC(C)C)C(=O)N[C@@H](CCCCNC(=O)CC[C@H](NC(=O)CCCCCCCCCCCCCCCCC(=O)O)C(=O)O)C(=O)N[C@@H](CCCCN)C(=O)N[C@H](C(=O)N[C@@H](CC(C)C)C(=O)N[C@@H](CC(C)C)C(=O)N[C@@H](CCC(=O)O)C(=O)N[C@@H](CCC(N)=O)C(=O)N[C@@H](CCC(=O)O)C(=O)N[C@@H](CCCCN)C(=O)N[C@@H](CCC(N)=O)C(=O)N[C@@H](CCCCN)C(=O)N[C@@H](CCCCN)C(=O)N[C@@H](CCC(N)=O)C(=O)N[C@@H](CCCNC(=N)N)C(=O)N[C@@H](CCC(=O)O)C(=O)N[C@@H](CCC(N)=O)C(=O)N[C@@H](C)C(=O)N[C@@H](CCC(=O)O)C(=O)N[C@H](C(=O)N[C@@H](CC(N)=O)C(=O)NC(C)(C)C(=O)N[C@@H](CCC(N)=O)C(=O)N[C@H](C(=O)N[C@@H](CC(C)C)C(=O)N[C@@H](C)C(=O)N[C@@H](CCC(N)=O)C(=O)N[C@H](C(N)=O)C(C)C)[C@@H](C)CC)[C@@H](C)O)[C@@H](C)CC)[C@@H](C)CC)C(C)C)C(C)C) [SEQ ID NO 195]	180	42	0.21
